These results are taken from PMC6423188, “HYNIC and DOMA conjugated radiolabeled bombesin analogs as receptor-targeted probes for scintigraphic detection of breast tumor” (EJNMMI Research, 2019).

Where a SMILES comes first, the peptide text is derived from it.

The nature of data set [1]: Blood clearance studies. It counts as in vivo. The conditions noted are these: mouse, i.v. tail vein. As for the experimental part: ^99mTc-labeled HYNIC/DOMA conjugated peptide analogs (1 mCi, 0.2 mL) were administered to well-hydrated mouse (n = 3) through tail vein and blood samples (20 μL each) were collected at preset time intervals (2, 5, 15, 30, 60, 90, and 120 min) in the tube. Each sample was weighed accurately, and associated radioactivity was counted in a gamma counter. The percentage injected activities per gram (%IA/g) in each blood sample at each time were determined, and the data were plotted as a function of the time interval to obtain the blood clearance curve of the radiopharmaceuticals.

A short description of data set [2]: in vitro. It is filed as in vitro ADME. The following applies: rat, serum. As for the experimental part:
In vitro radiochemical stability of ^99mTc-BN1/^99mTc-BN2/^99mTc-BN3 and ^99mTc-BN4, ^99mTc-BNS were assessed by incubating HPLC purified radiopeptides in phosphate buffer saline (PBS at pH 7.4) and freshly collected rat serum for 1–24 h at […]. Then, 90 μL of radiolabeled peptide ^99mTc-BN1/^99mTc-BN2/^99mTc-BN3/^99mTc-BN4/^99mTc-BNS solution were incubated under agitation at 37 °C with either 1.0 mL saline or fresh rat serum, and the mixtures were incubated at 37 °C for 24 h. Samples were periodically withdrawn from the mixture at 0, 2, 4, 6, 8, 12, and 24 h incubation period and analyzed by ITLC. In the case of rat serum, the aliquot was added to 100 μL 50% trifluoroacetic acid (TFA). After centrifugation (3000 rpm), the supernatant was analyzed by ITLC using acetone as the developing solvent; 10 μL of this mixture was taken at each time point, added to a strip ITLC whereby the percentage of ^99mTc-BN1/^99mTc-BN2/^99mTc-BN3/^99mTc-BN4/^99mTc-BNS was determined using gamma counter.
In vitro stability of ^99mTc-labeled bombesin analogs incubated at 37 °C with either freshly collected rat serum or normal saline were monitored up to 24 h. […] The new radiolabeled peptide conjugates were stable up to 24 h post labeling period at room temperature, with no observable degradation or transchelation to serum proteins.

A short description of data set [3]: physchem. The conditions noted are these: pH 7.4. It counts as physicochemical. An outline of the steps: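 HPLC-purified 99mTc-labeled peptides were shaken 2 min at room temperature between 1 mL n-octanol and 1 mL PBS (0.025 M, pH 7.4), then centrifuged to separate the phases. Each phase was γ-counted. logD was derived as log10 of the background-corrected octanol/buffer cpm ratio.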

In general, share remaining refers to what is left of the initial amount, in per cent. A word on the logD: it is the decadic logarithm of the distribution of all forms, ionised or not, between an organic phase and buffer at a given pH. High values mean higher lipophilicity, low ones lower lipophilicity. In data set [1], `CCCC[C@H](NC(=O)[C@@H](Cc1ccc(O)cc1)NC(=O)[C@H](Cc1c[nH]cn1)NC(=O)[C@H]1CCCN1C(=O)[C@@H](NC(=O)[C@H](C)NC(=O)[C@H](Cc1c[nH]c2ccccc12)NC(=O)[C@H](CCC(N)=O)NC(=O)CCCNC(=O)CN1CCNCCNCCNCC1)C(C)C)C(N)=O` [99mTc-BN4, ^99mTc-DOMA-GABA-[Pro^11Tyr^13Nle^14]-BN(7-14)NH2, metal not drawn] (HELM PEPTIDE1{[O=C(CN1CCNCCNCCNCC1)[*:2]].[O=C(CCCN[*:1])[*:2]].Q.W.A.V.[dP].H.[dY].[Nle].[am]}$$$$V2.0) returned a t1/2 in blood of 30 min. Further, in data set [2], the amount remaining at 4 h amounted to 97.6 ± 0.05%, the share remaining at 6 h was found to be 97 ± 0.18%, the fraction remaining at 8 h was 96.4 ± 0.2% and the share remaining at 12 h was found to be 95.2 ± 0.05%. In addition, the amount remaining at 24 h in data set [2] worked out at 93.3 ± 0.02%. The molecule also showed a logD in data set [3] of -2.7.
